Laboratory results: paper PMC4860839, “Structures of the APC–ARM domain in complexes with discrete Amer1/WTX fragments reveal that it uses a consensus mode to recognize its binding partners” (Cell Discovery, 2015)

Target: T1, APC–ARM, human APC (407–751), N-terminally His-tagged (human, UniProt P25054 407-751)
T1 construct: human APC, armadillo repeat (ARM) domain, residues 407–751; source: E. coli BL21(DE3), purified (Ni2+-NTA, Superdex200)
T1 sequence (looked up): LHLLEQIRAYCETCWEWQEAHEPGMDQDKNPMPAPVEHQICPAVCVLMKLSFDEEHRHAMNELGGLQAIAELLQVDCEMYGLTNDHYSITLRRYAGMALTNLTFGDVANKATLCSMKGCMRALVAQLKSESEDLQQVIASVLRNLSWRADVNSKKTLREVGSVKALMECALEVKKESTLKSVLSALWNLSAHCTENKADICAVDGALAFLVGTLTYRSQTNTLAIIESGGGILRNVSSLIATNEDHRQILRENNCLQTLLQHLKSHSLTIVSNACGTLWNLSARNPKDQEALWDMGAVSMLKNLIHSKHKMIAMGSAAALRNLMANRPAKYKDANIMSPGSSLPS
Test: pull-down; competition: GST-Amer1-A2/APC–ARM complex (0.5 mg/ml, 4 ml) preloaded on the GST column at 4 °C; 0.1, 0.2, 0.5, 1 mg/ml Asef ABR-SH3 (0.5 ml) added; SDS–PAGE, Coomassie
Conditions: both partners purified

B1: Asef-ABR-SH3 (residues 170–271) (domain or fragment, human, UniProt Q9NR80 170-271, looked up)
chain: SSSHHYSHPGGGGEQLAINELISDGSVVCAEALWDHVTMDDQELGFKAGDVIEVMDATNREWWWGRVADGEGWFPASFVRLRVNQDEPADDDAPLAGNSGAE
notes: Added as a protein at stated concentrations; its expression and purification are not described; also called ABR-SH3 domain of Asef
B1: binds.
